1 molecule from publication PMC7772775, “The uncharacterized protein FAM47E interacts with PRMT5 and regulates its functions” (Life Science Alliance, 2020) can be followed below.

The assay addresses T1, recombinant His-tagged PRMT5 (human, UniProt O14744-1 1-637).
T1 construct: Protein arginine methyltransferase 5 (PRMT5), full length, NM_006109.4; Cloned in pET28a; also called His-PRMT5; His-RMT5; source: bacterial expression, purified
The assay is described as follows: pull-down; 50 ug GST or GST-FAM47E on glutathione sepharose 4B, blocked with 5% BSA; 25 ug His-PRMT5 in 10 mM Tris, 150 mM NaCl, 0.5 mM EDTA, 0.1% NP40, 3 h at 4°C; washed with 300 mM NaCl, 0.5% NP40; probed with His antibody. The following applies: both partners purified.

T1 sequence (O14744 whole entry): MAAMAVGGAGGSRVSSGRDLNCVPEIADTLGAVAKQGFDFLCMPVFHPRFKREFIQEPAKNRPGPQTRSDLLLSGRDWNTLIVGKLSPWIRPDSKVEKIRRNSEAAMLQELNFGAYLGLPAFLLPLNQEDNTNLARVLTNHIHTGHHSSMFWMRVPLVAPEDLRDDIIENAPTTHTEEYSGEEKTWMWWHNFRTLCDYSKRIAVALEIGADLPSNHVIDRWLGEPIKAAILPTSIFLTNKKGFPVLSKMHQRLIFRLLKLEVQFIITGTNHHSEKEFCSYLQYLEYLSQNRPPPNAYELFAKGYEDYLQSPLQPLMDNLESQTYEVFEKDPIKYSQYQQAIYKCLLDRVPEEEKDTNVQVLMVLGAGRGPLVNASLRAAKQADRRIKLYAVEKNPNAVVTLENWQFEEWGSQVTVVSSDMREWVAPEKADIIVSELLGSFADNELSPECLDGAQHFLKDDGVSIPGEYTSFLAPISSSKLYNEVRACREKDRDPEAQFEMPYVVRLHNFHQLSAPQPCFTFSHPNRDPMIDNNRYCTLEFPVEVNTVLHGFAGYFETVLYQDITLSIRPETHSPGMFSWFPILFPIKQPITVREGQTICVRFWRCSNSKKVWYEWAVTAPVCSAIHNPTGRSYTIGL

B1: recombinant GST-tagged FAM47E (natural protein, human, UniProt Q6ZV65-2 1-295, looked up)
chain: MQMSVPCVLSSLQNHEPNKPLFTTQSQLLSKVLEVLDPDRKLEDTWAYCQDTRKGMKEPTKLLKKHSTQVYLGPSKKTSVSNAGQWLYEEKPHKMDLLHENGPRPGLHENVCKAVSDFCKWVTTFGISDIDEEFILKQFDIDYETKPSHDALHTMKLNQVPLELKRSVGLSKLQETEFFQKLGYERKLQKPQNPYKPKWVKMRYGAWYLNPKLWKKQRVDEPLVDPEVSHKAQEENFKKELQEQEELLADLHGTVAFKDFILSRGYRTPRFLENMYIGKECKRACNKTPIKRTQA
notes: Cloned in pGEX-6P2; also called GST-FAM47E; pGEX-FAM47E; source: bacterial expression, purified
For B1, the binding result was “binds”.
